Results published in the DeepSol protein solubility set.

Assay: soluble on expression in E. coli; label from the status in PepcDB or PDB records

Sequence | soluble on expression in E. coli
MVPESHPRYKSLLNRDRIVEAFESGVLAKGGMIAHGRGETFDYLIGESTTDAALNSIKVSAALLVLAENPVISVNGNSVALAKDEFVELAKELNGKIEVNLFYRTTEREEKIKDVFESDINGGIVLLGIDNADKQIPGIDHLRGKVSESGIYTSDVVLVPLEDGDRAEALVKMGKTVIAIDLNPLSRTARKSTISIIDELTRCIPLITEYVREYKKMDRAELLKIVENYDNEENLRNILNLISKRLTSVDLEHHHHHH | soluble
MAHHHHHHMGRVRHGATICSAVSDATAGKQKSACVTDVEEIPTLSFLSSKSILSETVDRTIEVCDALLNEIPKAKSIKEKHDLIDSTSNVLCLLLDPCEFVRQVHPDAEYKQHASYAFQKGYEYMSKVNSRRDLYDVVLQLDSTEGHKELSSEEIKNVAQLRRDMESNGIHLPDKLREKVTEMNIEKEELAMRFLTEQGSKNPFATLRYLLQCRYELSQLLGFESFAEQQLRGTMLENQQRVWHFLCGIAHKYRREAEKEMDIIRSNVGEVRNRQNITDDVRARVAHSLRRDAEPETAAEYFSVANCIRGIQCLCLEVFGVRLEEVQFDKDEIFNNDAKKYHVYDENKAFLGVIVLDLYASEMKYCQAGHLTLQLGCIPHQEALAKVGLKLPKRQYPVVVLTCNVGACSPVQRLPNGRFDDESTLMHPNEVTTVFHEFGHAMHTIFGQTKVQNLAGTRASIDFVETFSQLFEQFLTSHEFLQLWAHRISTREPISFDMVMKRNAAADMFKHLDMMDQVVLSAVDQTLHGPQPYTVYFPRGDQGNLGKRTLGDIGDYGRGTYNLAKVLIDICTPLSIVTPTETGVLGTLSFEHLSGYPAGYYGYLYSLSIARRIWAKKFMKDPLNRDAGRELVQKVMRHGAACNPVDVIENYLEDKLDEIDIWV | not soluble
MFRILTINPGSTSTKLSIFEDERMVKMQNFSHSPDELGRFQKILDQLEFREKIARQFVEETGYSLSSFSAFVSRGGLLDPIPGGVYLVDGLMIKTLKSGKNGEHASNLGAIIAHRFSSETGVPAYVVDPVVVDEMEDVARVSGHPNYQRKSIFHALNQKTVAKEVARMMNKRYEEMNLVVAHMGGGISIAAHRKGRVIDVNNALDGDGPFTPERSGTLPLTQLVDLCFSGKFTYEEMKKRIVGNGGLVAYLGTSDAREVVRRIKQGDEWAKRVYRAMAYQIAKWIGKMAAVLKGEVDFIVLTGGLAHEKEFLVPWITKRVSFIAPVLVFPGSNEEKALALSALRVLRGEEKPKNYSEESRRWRERYDSYLDGILRHHHHHH | soluble
MIKGMKTRGERLKARRLELKLTLKQVAEAVGISLPGVQNLERGDVMPSLEIGLSLAKCLRKPVQWILYGTESDPDRVPVIGTTETGPDRDWQPGEPANTERFLPFVSQRNTVYALTVGNQIQRNYQPGDVILVDSSLTLVPGEDVLVCDNNGEITIQRLARYDEQHYYLDSANSQRVIHDKSDLQFVHQVVGTIKSFMVEGR | not soluble
AAQPADIVLTQTPSSLPVSVGEKVTMTCKSSQTLLYSNNQKNYLAWYQQKPGQSPKLLISWAFTRKSGVPDRFTGSGSGTDFTLTIGSVKAEDLAVYYCQQYSNYPWTFGGGTRLEIKRGGGGSGGGGSGGGGSGGGGSEVQLQQSGPEVVKTGASVKISCKASGYSFTGYFINWVKKNSGKSPEWIGHISSSYATSTYNQKFKNKAAFTVDTSSSTAFMQLNSLTSEDSAVYYCVRSGNYEEYAMDYWGQGTSVTVSS | soluble
GHHHHHHAIAENLYFQSQQVKQKHKKSDEYRVFVGNLPFSWLEDAVRSVFHSYGTVVDVEVPRKREQPERNRGFAFVYFSSREEALAATTLSGSRLDGRIIKVEWADDGSEHRKVGHEELTQRPTHPLASSQVYEWGGQQVQKQNDSVVSKETPNFMPSGALYKEQRMTRYGKELKFVEPLDARKPEQPWRMYVFKNGKLLEGEEGVFYIHQKSNYLFGRDRDVVDIPIDHPSASKQHAVLQFRQVMPKNGNKLVIKPYIMDLESTNGTFLNNERIESLRYYELLEKDLLRFGHSSREFILLTGHK | soluble
PSIKSAIQGKPVNPLNVSPTRLPILTADEKEFDVKIIVTGDRNQLADLEYVDEDFSTGLTMYTEVEEDIHLSASNLELYVGLVNWICSEYGFPSLDDGAFQRLLLAGMRLTEDQH | not soluble
ADMEVIELNKCTSGQSFEVILKPPSFDGVPEFNASLPRRRDPSLEEIQKKLEAAEERRKYQEAELLKHLAEKREHEREVIQKAIEENNNFIKMAKEKLAQKMESNKENREAHLAAMLERLQEKDKHAEEVRKNKELKEEASR | soluble
MGSDKIHHHHHHMSIVLKAIRFHRETDLFTDLNFEFPTGALTVLTGDSGSGKSTLLSLIAGYAAMPYEGTILLNGHDDRNAAMQVKAQHVGMMFQNPDQQFTMRTLSGELSFALENLNLPVAEIQRRFAQAVALGETQALLDRDLSTLSGGEKQRAALTVLLAMDAPILLLDEPFASIDPTSRHLLIGKLGTLRDHGKTIVIAEHDLTDYADVADQLVALKNGELSRLPLATLTTLPTHFNLTQPRQATNKIFHLENVVCQQNHHILLQAPSWDFNDGITTLTGANGSGKSTLLRSMVQRHPYQGRMFLGQQRLRRRKRLYQTMTLAVQDAAKQFVTLTLADELAFGPALPAAVREKQQAALAYLGLAEKQTTSLYQLSEGQKKMVQLMTMLSLDLSFLLLDEPFSGLDDRACQYFAAWIKAKSATQAFLIVTHRLAPLAGISQQQVLLANHRLQVVQG | not soluble
MSLANKPLAKALETISGIPITPFRKSDGSIDWHHYKETVDRIVDNGIDVIVPCGNTSEFYALSLEEAKEEVRRTVEYVHGRALVVAGIGYATSTAIELGNAAKAAGADAVMIHMPIHPYVTAGGVYAYFRDIIEALDFPSLVYFKDPEISDRVLVDLAPLQNLVGVKYAINDLPRFAKVVRSIPEEHQIAWICGTAEKWAPFFWHAGAKGFTSGLVNLLPQKAVEMLEALRNNDNDAVWRIWEDIVPFEDLRGKYNQGNNVVVIKEAMEMLRQNAGVTRAPVNELSNEDKQLVTELLSSWKLLQPTKGEGHHHHHH | soluble
MGSDKIHHHHHHMRRLFAIGEALIDFIPNVTHSKLKDVEQFSRQVGGAPCNVAATVSKLGGKSEMITQLGNDAFGDIIVETIEQLGVGTQYIKRTNKANTALAFVSLQDDGQRDFSFYRKPSADMLYQPENIDDIQVFQDDILHFCSVDLIESDMKYAHEKMIEKFESVDGTIVFDPNVRLPLWEDKLECQRTINAFIPKAHIVKISDEELLFITGKRNEDEAIQSLFRGRVNVVIYTQGAQGATIYTKDDYRIHHEGYQVQAIDTTGAGDAFIGAIIYCILESRYSECKDLFKEKGKDILAFSNRVAALTTTKHGAIESLPTKEDIKDYN | not soluble
MNERLIFNPKQLTSARIARGLTMKELAEKAELSRQMISNYESGKTIPKADSILKLISVLQFPRSFFSADTFELYSGATFFRSRSAATKKVRDMQKERLKYVQEVYKVLATYVNFPKVCLPELIEKSIYEITEEEIVKKAEELRKIWGLDLISPVPNLIQLAEQNGVIISEANMSNPTLDAVSRWMIGRPFIMLTDNHESAVRRRFNVAHELGHILLHNGVESIHEYSQTELKNIIEYQANLFAAHFLLPSAAFSDSLLSISLEYYIDLKKYWKVSLQSMIQKIYTLALINDDQRLYLNKRIAKNKWKTKEPYDEQLTIEQPEVFQKVYHMILEHQVIPASQLNQAFKLPKEEIEKILGTAIQTEQDKTEIVLELLRSNK | not soluble
MNVFKTQTLLCPSGVHSRPEDHDETPFLCSKAQSVTVVAFLVARLLATLATHQMTSHTEGLRKGGGRKDTQLMKGQCSAIKVIFWPGCLPQPRMHSRLHIRSINKGGQLRPTGCNK | soluble
NIILQEDNAQLDEVVVVGYGTMKKKDLTGSVTAVKGDELAARRTTQLSTALQGALSGVMVSRDNGAPGSSASIQIRGVTTIGDSSPLVIIDGIPGDINSVNPEDVESMSVLKDAASASIYGSRAAAGVIVITTKRAKSGD | not soluble
MSLMTKENNKSAAETEEWKKEYALRDELLKQEKENKKFEKELYQKQNKVRQAENKLKKEKSEYYNVLEDTEKYRMYIGEVGVQGEGVEVTLEDASYIPEGENVNSYIVHESHIFQVVNELYISGAALVAVNGQRLTHDSYIKCNGPVVTVDGVQHPAPFTVSAIGDPDVLLPSLNIAGGLIDQLSMDHISVSAEKEKNVQMKPILKTKEEGHHHHHH | soluble
MATGKGEYHMGNTMTKAIYDKFKVATPYGNKVATGAIPAEAVNIAVKVGGFKVGDQNYPINPKITFTNNTGIDIPGGTEFQFDIPVSAPDNAKDQSGGGLKVIASGHTRANNIGGLDGTMHRVAFSLPAWKSLPAGATYELDMVYYLPISGPANYTVKINNVEYAFSFEQPDLPVADLTALEHHHHHH | soluble
